Experimental data as given in ChEMBL document CHEMBL1155806, “Inorganic polyhedral metallacarborane inhibitors of HIV protease: a new approach to overcoming antiviral resistance” (J Med Chem, 2008).

Assays:
[1] = test system: Cc1c(O)cccc1C(=O)N[C@@H](CSc1ccccc1)[C@H](O)CN1C[C@H]2CCCC[C@H]2C[C@H]1C(=O)NC(C)(C)C; conditions: Human immunodeficiency virus 1
[2] = test system: Cc1c(O)cccc1C(=O)N[C@@H](CSc1ccccc1)[C@H](O)CN1C[C@H]2CCCC[C@H]2C[C@H]1C(=O)NC(C)(C)C; conditions: Human immunodeficiency virus 1; remark: listed apart in the source
[3] = test system: Cc1c(O)cccc1C(=O)N[C@@H](CSc1ccccc1)[C@H](O)CN1C[C@H]2CCCC[C@H]2C[C@H]1C(=O)NC(C)(C)C; conditions: Human immunodeficiency virus 1; remark: listed apart in the source
[4] = test system: Cc1c(O)cccc1C(=O)N[C@@H](CSc1ccccc1)[C@H](O)CN1C[C@H]2CCCC[C@H]2C[C@H]1C(=O)NC(C)(C)C; conditions: Human immunodeficiency virus 1; remark: listed apart in the source
[5] = test system: Cc1c(O)cccc1C(=O)N[C@@H](CSc1ccccc1)[C@H](O)CN1C[C@H]2CCCC[C@H]2C[C@H]1C(=O)NC(C)(C)C; conditions: Human immunodeficiency virus 1; remark: listed apart in the source
[6] = test system: Cc1c(O)cccc1C(=O)N[C@@H](CSc1ccccc1)[C@H](O)CN1C[C@H]2CCCC[C@H]2C[C@H]1C(=O)NC(C)(C)C; conditions: Human immunodeficiency virus 1; remark: listed apart in the source
[7] = test system: Cc1c(O)cccc1C(=O)N[C@@H](CSc1ccccc1)[C@H](O)CN1C[C@H]2CCCC[C@H]2C[C@H]1C(=O)NC(C)(C)C; conditions: Human immunodeficiency virus 1; remark: listed apart in the source
[8] = test system: Cc1c(O)cccc1C(=O)N[C@@H](CSc1ccccc1)[C@H](O)CN1C[C@H]2CCCC[C@H]2C[C@H]1C(=O)NC(C)(C)C; conditions: Human immunodeficiency virus 1; BH10

Substance: Human immunodeficiency virus type 1 protease (Human immunodeficiency virus 1), Q72874 A71V,V82T,I84V
- Km [1]: 36 µM
- kcat [1]: 11 s⁻¹

Substance: Human immunodeficiency virus type 1 protease (Human immunodeficiency virus 1), Q72874 D30N,N88D
- Km [2]: 18 µM
- kcat [2]: 24 s⁻¹

Substance: Human immunodeficiency virus type 1 protease (Human immunodeficiency virus 1), Q72874 L10F,L19I,K20R,L33F,E35D,M36I,R41K,F53L,I54V,L63P,H69K,A71V,T74P,I84V,L89M,L90M,I93L
- Km [3]: 13 µM
- kcat [3]: 10 s⁻¹

Substance: Human immunodeficiency virus type 1 protease (Human immunodeficiency virus 1), Q72874 L10I,I15V,E35D,N37S,R41K,I62V,L63P,A71V,G73S,L90M
- Km [4]: 8.3 µM
- kcat [4]: 12 s⁻¹

Substance: Human immunodeficiency virus type 1 protease (Human immunodeficiency virus 1), Q72874 L10I,L24I,L33F,M46L,I54V,L63P,A71V,V82A,I84V
- Km [5]: 14 µM
- kcat [5]: 6.4 s⁻¹

Substance: Human immunodeficiency virus type 1 protease (Human immunodeficiency virus 1), Q72874 M46I,A71V,V82T,I84V
- Km [6]: 48 µM
- kcat [6]: 14 s⁻¹

Substance: Human immunodeficiency virus type 1 protease (Human immunodeficiency virus 1), Q72874 V32I,I47A
- Km [7]: 35 µM
- kcat [7]: 7.5 s⁻¹

Substance: Protease (Human immunodeficiency virus 1), Q9YQ12
- Km [8]: 15 µM
- kcat [8]: 30 s⁻¹
